Consider 12 molecules from US20170015742A1 (published 2017).

First the molecules themselves.
B1: CODV006 cross-over DVD-Ig (PR-1565084) (bispecific antibody, human IgG1, kappa, L234A L235A)
heavy: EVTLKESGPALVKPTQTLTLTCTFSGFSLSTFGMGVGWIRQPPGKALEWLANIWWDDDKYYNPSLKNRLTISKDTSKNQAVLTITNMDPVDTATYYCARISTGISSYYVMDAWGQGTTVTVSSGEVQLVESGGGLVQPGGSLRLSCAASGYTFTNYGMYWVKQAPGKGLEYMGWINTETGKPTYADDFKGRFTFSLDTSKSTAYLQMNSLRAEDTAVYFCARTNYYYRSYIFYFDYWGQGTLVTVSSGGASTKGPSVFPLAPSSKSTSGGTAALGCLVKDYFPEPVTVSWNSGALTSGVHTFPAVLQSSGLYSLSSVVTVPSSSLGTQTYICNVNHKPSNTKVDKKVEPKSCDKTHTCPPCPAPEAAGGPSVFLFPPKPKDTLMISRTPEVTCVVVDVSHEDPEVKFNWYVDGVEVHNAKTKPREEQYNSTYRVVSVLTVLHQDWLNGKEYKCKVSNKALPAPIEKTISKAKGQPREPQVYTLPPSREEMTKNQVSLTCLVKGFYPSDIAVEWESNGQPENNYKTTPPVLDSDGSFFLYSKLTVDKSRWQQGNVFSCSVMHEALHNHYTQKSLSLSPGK
light: DTQLTQSPSSLSASVGDRVTISCRASESVSTHMHWYQQKPGKAPKLLIYGASNLESGVPSRFSGSGSGTDFTLTISSLQPEDFATYFCQQSWNDPFTFGQGTKVEIKGGGSGGGDFQLTQSPSSLSASVGDRVTITCERSSGDIGDTYVSWYQQKPGKAPKNVIYGNDQRPSGVPSRFSGSGSGNSATLTISSLQPEDFATYFCQSYDSDIDIVFGQGTKVEIKGGGSGRTVAAPSVFIFPPSDEQLKSGTASVVCLLNNFYPREAKVQWKVDNALQSGNSQESVTEQDSKDSTYSLSSTLTLSKADYEKHKVYACEVTHQGLSSPVTKSFNRGEC
B2: CODV008 cross-over DVD-Ig (PR-1565086) (bispecific antibody, human IgG1, kappa, L234A L235A)
heavy: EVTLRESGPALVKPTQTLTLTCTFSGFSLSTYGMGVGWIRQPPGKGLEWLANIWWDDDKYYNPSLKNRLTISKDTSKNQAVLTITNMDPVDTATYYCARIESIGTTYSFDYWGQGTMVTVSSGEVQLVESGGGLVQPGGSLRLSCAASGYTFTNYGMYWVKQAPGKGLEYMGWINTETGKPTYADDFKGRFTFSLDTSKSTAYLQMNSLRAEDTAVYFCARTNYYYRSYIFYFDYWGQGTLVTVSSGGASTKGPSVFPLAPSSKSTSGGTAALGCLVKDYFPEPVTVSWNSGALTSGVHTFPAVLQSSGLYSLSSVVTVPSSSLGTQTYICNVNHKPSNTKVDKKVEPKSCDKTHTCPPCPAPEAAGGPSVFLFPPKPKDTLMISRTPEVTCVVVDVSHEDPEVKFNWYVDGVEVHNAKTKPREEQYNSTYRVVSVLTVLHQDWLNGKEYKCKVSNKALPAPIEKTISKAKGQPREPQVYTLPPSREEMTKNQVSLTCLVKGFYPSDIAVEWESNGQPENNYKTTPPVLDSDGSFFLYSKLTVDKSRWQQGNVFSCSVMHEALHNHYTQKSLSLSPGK
light: B1 light with T147S, G166A, N167D, T188S, S209I, D210N
B3: CODV018 cross-over DVD-Ig (PR-1571831) (bispecific antibody, human IgG1, kappa, L234A L235A)
heavy: EFVLTQSPGTLSLSPGERATLSCERSSGDIGDSYVSWYQQKPGQAPRLVIYADDQRPSGIPDRFSGSGSGTDFTLTISRLEPEDFAVYYCQSYDINIDIVFGGGTKVEIKGGGSGGGDTVLTQSPATLSLSPGERATLSCRASESVSTHMHWYQQKPGQAPRLLIYGASNLESGVPARFSGSGSGTDFTLTISSLEPEDFAVYFCQQSWNDPFTFGQGTKLEIKGGGSGASTKGPSVFPLAPSSKSTSGGTAALGCLVKDYFPEPVTVSWNSGALTSGVHTFPAVLQSSGLYSLSSVVTVPSSSLGTQTYICNVNHKPSNTKVDKKVEPKSCDKTHTCPPCPAPEAAGGPSVFLFPPKPKDTLMISRTPEVTCVVVDVSHEDPEVKFNWYVDGVEVHNAKTKPREEQYNSTYRVVSVLTVLHQDWLNGKEYKCKVSNKALPAPIEKTISKAKGQPREPQVYTLPPSREEMTKNQVSLTCLVKGFYPSDIAVEWESNGQPENNYKTTPPVLDSDGSFFLYSKLTVDKSRWQQGNVFSCSVMHEALHNAYTQKSLSLSPGK
light: EVQLVQSGSELKKPGASVKVSCKASGYTFTNYGMYWVRQAPGQGLEWMGWINTETGKPTYADDFKGRFVFSLDTSVSTAYLQISSLKAEDTAVYYCARTNYYYRSYIFYFDYWGQGTMVTVSSGEVTLRESGPALVKPTQTLTLTCTFSGFSLSTYGMGVGWIRQPPGKALEWLANIWWDDDKYYNPSLKNRLTISKDTSKNQVVLTMTNMDPVDTATYYCARIESIGTTYSFDYWGQGTMVTVSSGGRTVAAPSVFIFPPSDEQLKSGTASVVCLLNNFYPREAKVQWKVDNALQSGNSQESVTEQDSKDSTYSLSSTLTLSKADYEKHKVYACEVTHQGLSSPVTKSFNRGEC
B4: CODV017 cross-over DVD-Ig (PR-1571830) (bispecific antibody, human IgG1, kappa, L234A L235A)
heavy: DTVLTQSPATLSLSPGERATLSCRASESVSTHMHWYQQKPGQAPRLLIYGASNLESGVPARFSGSGSGTDFTLTISSLEPEDFAVYFCQQSWNDPFTFGQGTKLEIKGGGSGGGEFVLTQSPGTLSLSPGERATLSCERSSGDIGDSYVSWYQQKPGQAPRLVIYADDQRPSGIPDRFSGSGSGTDFTLTISRLEPEDFAVYYCQSYDINIDIVFGGGTKVEIKGGGSGASTKGPSVFPLAPSSKSTSGGTAALGCLVKDYFPEPVTVSWNSGALTSGVHTFPAVLQSSGLYSLSSVVTVPSSSLGTQTYICNVNHKPSNTKVDKKVEPKSCDKTHTCPPCPAPEAAGGPSVFLFPPKPKDTLMISRTPEVTCVVVDVSHEDPEVKFNWYVDGVEVHNAKTKPREEQYNSTYRVVSVLTVLHQDWLNGKEYKCKVSNKALPAPIEKTISKAKGQPREPQVYTLPPSREEMTKNQVSLTCLVKGFYPSDIAVEWESNGQPENNYKTTPPVLDSDGSFFLYSKLTVDKSRWQQGNVFSCSVMHEALHNAYTQKSLSLSPGK
light: EVTLRESGPALVKPTQTLTLTCTFSGFSLSTYGMGVGWIRQPPGKALEWLANIWWDDDKYYNPSLKNRLTISKDTSKNQVVLTMTNMDPVDTATYYCARIESIGTTYSFDYWGQGTMVTVSSGEVQLVQSGSELKKPGASVKVSCKASGYTFTNYGMYWVRQAPGQGLEWMGWINTETGKPTYADDFKGRFVFSLDTSVSTAYLQISSLKAEDTAVYYCARTNYYYRSYIFYFDYWGQGTMVTVSSGGRTVAAPSVFIFPPSDEQLKSGTASVVCLLNNFYPREAKVQWKVDNALQSGNSQESVTEQDSKDSTYSLSSTLTLSKADYEKHKVYACEVTHQGLSSPVTKSFNRGEC
B5: CODV004 cross-over DVD-Ig (PR-1565051) (bispecific antibody, human IgG1, kappa, L234A L235A)
heavy: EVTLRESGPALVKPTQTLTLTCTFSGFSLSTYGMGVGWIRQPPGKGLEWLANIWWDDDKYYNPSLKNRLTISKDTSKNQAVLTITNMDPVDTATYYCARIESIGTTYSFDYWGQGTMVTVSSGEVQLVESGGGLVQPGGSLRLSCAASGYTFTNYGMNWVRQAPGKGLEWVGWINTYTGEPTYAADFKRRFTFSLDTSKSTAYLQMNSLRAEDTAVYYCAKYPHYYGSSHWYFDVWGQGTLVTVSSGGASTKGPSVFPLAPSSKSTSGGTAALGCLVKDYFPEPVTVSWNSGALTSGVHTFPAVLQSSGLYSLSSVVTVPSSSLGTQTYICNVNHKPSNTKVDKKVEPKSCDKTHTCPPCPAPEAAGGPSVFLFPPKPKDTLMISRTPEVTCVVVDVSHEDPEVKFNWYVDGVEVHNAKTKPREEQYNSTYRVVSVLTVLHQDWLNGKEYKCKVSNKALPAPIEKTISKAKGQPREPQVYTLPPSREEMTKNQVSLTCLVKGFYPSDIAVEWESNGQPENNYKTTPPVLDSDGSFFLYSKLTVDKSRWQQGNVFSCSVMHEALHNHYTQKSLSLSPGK
light: DIQMTQSPSSLSASVGDRVTITCSASQDISNYLNWYQQKPGKAPKVLIYFTSSLHSGVPSRFSGSGSGTDFTLTISSLQPEDFATYYCQQYSTVPWTFGQGTKVEIKGGGSGGGDFQLTQSPSSLSASVGDRVTITCERSSGDIGDSYVSWYQQKPGKAPKNVIYADDQRPSGVPSRFSGSGSGNSASLTISSLQPEDFATYFCQSYDINIDIVFGQGTKVEIKGGGSGRTVAAPSVFIFPPSDEQLKSGTASVVCLLNNFYPREAKVQWKVDNALQSGNSQESVTEQDSKDSTYSLSSTLTLSKADYEKHKVYACEVTHQGLSSPVTKSFNRGEC
B6: CODV003 cross-over DVD-Ig (PR-1565044) (bispecific antibody, human IgG1, kappa, L234A L235A)
heavy: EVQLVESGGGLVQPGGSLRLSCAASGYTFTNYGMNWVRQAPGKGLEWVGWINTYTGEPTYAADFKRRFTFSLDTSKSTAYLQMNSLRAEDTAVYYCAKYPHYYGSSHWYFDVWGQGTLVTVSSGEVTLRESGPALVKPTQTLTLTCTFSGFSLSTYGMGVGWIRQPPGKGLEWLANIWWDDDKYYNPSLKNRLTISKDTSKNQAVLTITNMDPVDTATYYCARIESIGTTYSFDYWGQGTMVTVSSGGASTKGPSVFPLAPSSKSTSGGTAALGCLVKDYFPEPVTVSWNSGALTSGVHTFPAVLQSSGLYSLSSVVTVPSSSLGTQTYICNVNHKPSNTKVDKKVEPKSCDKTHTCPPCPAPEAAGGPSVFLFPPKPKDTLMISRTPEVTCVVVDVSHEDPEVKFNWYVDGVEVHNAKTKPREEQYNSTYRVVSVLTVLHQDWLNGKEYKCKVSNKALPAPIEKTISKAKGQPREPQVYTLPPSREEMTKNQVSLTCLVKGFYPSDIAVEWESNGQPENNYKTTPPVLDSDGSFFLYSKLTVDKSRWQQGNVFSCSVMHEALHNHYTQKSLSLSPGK
light: DFQLTQSPSSLSASVGDRVTITCERSSGDIGDSYVSWYQQKPGKAPKNVIYADDQRPSGVPSRFSGSGSGNSASLTISSLQPEDFATYFCQSYDINIDIVFGQGTKVEIKGGGSGGGDIQMTQSPSSLSASVGDRVTITCSASQDISNYLNWYQQKPGKAPKVLIYFTSSLHSGVPSRFSGSGSGTDFTLTISSLQPEDFATYYCQQYSTVPWTFGQGTKVEIKGGGSGRTVAAPSVFIFPPSDEQLKSGTASVVCLLNNFYPREAKVQWKVDNALQSGNSQESVTEQDSKDSTYSLSSTLTLSKADYEKHKVYACEVTHQGLSSPVTKSFNRGEC
B7: DVD3906 DVD-Ig (PR-1565035) (bispecific antibody, human IgG1, kappa, L234A L235A)
heavy: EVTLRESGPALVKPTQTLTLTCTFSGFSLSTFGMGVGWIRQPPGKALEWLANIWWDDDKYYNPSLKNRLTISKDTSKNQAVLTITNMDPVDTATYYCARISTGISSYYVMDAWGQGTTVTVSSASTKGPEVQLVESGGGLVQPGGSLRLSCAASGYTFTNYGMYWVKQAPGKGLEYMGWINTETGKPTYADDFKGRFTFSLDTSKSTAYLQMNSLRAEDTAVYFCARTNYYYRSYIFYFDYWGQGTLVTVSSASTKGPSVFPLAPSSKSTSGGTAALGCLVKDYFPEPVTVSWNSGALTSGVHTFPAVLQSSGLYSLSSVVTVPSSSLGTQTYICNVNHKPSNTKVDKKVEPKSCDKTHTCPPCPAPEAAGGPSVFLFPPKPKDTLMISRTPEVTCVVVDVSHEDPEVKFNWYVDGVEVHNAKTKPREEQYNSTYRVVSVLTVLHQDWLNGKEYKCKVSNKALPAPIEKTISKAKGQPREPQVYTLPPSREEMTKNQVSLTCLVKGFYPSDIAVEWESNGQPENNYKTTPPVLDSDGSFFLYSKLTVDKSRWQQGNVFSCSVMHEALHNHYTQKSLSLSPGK
light: DFQLTQSPSSLSASVGDRVTITCERSSGDIGDTYVSWYQQKPGKAPKNVIYGNDQRPSGVPSRFSGSGSGNSATLTISSLQPEDFATYFCQSYDSDIDIVFGQGTKVEIKGTVAAPSVFIFPPDTQLTQSPSSLSASVGDRVTISCRASESVSTHMHWYQQKPGKAPKLLIYGASNLESGVPSRFSGSGSGTDFTLTISSLQPEDFATYFCQQSWNDPFTFGQGTKVEIKRTVAAPSVFIFPPSDEQLKSGTASVVCLLNNFYPREAKVQWKVDNALQSGNSQESVTEQDSKDSTYSLSSTLTLSKADYEKHKVYACEVTHQGLSSPVTKSFNRGEC
B8: CODV022 cross-over DVD-Ig (PR-1577056) (bispecific antibody, human IgG1, kappa, L234A L235A)
heavy: EVQLVQSGSELKKPGASVKVSCKASGYTFTNYGMYWVRQAPGQGLEWMGWINTETGKPTYADDFKGRFVFSLDTSVSTAYLQISSLKAEDTAVYYCARTNYYYRSYIFYFDYWGQGTMVTVSSGGGGSGGGEFVLTQSPGTLSLSPGERATLSCERSSGDIGESYVSWYQQKPGQAPRLVIYADDQRPSGIPDRFSGSGSGTDFTLTISRLEPEDFAVYYCQSYDINIDIVFGGGTKVEIKGGGSGASTKGPSVFPLAPSSKSTSGGTAALGCLVKDYFPEPVTVSWNSGALTSGVHTFPAVLQSSGLYSLSSVVTVPSSSLGTQTYICNVNHKPSNTKVDKKVEPKSCDKTHTCPPCPAPEAAGGPSVFLFPPKPKDTLMISRTPEVTCVVVDVSHEDPEVKFNWYVDGVEVHNAKTKPREEQYNSTYRVVSVLTVLHQDWLNGKEYKCKVSNKALPAPIEKTISKAKGQPREPQVYTLPPSREEMTKNQVSLTCLVKGFYPSDIAVEWESNGQPENNYKTTPPVLDSDGSFFLYSKLTVDKSRWQQGNVFSCSVMHEALHNAYTQKSLSLSPGK
light: EVTLRESGPALVKPTQTLTLTCTFSGFSLSTYGMGVGWIRQPPGKALEWLANIWWDDDKYYNPSLKNRLTISKDTSKNQVVLTMTNMDPVDTATYYCARIESIGTTYSFDYWGQGTMVTVSSGGGGSDTVLTQSPATLSLSPGERATLSCRASESVSTHMHWYQQKPGQAPRLLIYGASNLESGVPARFSGSGSGTDFTLTISSLEPEDFAVYFCQQSWNDPFTFGQGTKLEIKGGSRTVAAPSVFIFPPSDEQLKSGTASVVCLLNNFYPREAKVQWKVDNALQSGNSQESVTEQDSKDSTYSLSSTLTLSKADYEKHKVYACEVTHQGLSSPVTKSFNRGEC
B9: CODV005 cross-over DVD-Ig (PR-1565083) (bispecific antibody, human IgG1, kappa, L234A L235A)
heavy: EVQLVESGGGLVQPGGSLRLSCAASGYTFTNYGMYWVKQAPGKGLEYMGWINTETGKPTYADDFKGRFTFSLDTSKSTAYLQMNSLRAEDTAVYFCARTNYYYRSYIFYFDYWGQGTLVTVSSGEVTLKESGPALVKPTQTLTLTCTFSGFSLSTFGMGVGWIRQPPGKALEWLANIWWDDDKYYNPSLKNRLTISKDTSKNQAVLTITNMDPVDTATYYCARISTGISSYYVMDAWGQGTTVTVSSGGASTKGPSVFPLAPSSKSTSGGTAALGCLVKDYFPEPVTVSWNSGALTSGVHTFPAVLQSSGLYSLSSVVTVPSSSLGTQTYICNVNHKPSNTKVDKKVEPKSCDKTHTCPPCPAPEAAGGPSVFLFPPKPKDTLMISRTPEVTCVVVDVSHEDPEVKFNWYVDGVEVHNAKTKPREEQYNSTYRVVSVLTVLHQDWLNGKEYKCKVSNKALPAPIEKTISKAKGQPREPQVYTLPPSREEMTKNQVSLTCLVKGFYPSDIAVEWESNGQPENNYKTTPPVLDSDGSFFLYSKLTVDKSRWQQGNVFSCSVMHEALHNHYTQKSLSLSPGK
light: DFQLTQSPSSLSASVGDRVTITCERSSGDIGDTYVSWYQQKPGKAPKNVIYGNDQRPSGVPSRFSGSGSGNSATLTISSLQPEDFATYFCQSYDSDIDIVFGQGTKVEIKGGGSGGGDTQLTQSPSSLSASVGDRVTISCRASESVSTHMHWYQQKPGKAPKLLIYGASNLESGVPSRFSGSGSGTDFTLTISSLQPEDFATYFCQQSWNDPFTFGQGTKVEIKGGGSGRTVAAPSVFIFPPSDEQLKSGTASVVCLLNNFYPREAKVQWKVDNALQSGNSQESVTEQDSKDSTYSLSSTLTLSKADYEKHKVYACEVTHQGLSSPVTKSFNRGEC
B10: CODV007 cross-over DVD-Ig (PR-1565085) (bispecific antibody, human IgG1, kappa, L234A L235A)
heavy: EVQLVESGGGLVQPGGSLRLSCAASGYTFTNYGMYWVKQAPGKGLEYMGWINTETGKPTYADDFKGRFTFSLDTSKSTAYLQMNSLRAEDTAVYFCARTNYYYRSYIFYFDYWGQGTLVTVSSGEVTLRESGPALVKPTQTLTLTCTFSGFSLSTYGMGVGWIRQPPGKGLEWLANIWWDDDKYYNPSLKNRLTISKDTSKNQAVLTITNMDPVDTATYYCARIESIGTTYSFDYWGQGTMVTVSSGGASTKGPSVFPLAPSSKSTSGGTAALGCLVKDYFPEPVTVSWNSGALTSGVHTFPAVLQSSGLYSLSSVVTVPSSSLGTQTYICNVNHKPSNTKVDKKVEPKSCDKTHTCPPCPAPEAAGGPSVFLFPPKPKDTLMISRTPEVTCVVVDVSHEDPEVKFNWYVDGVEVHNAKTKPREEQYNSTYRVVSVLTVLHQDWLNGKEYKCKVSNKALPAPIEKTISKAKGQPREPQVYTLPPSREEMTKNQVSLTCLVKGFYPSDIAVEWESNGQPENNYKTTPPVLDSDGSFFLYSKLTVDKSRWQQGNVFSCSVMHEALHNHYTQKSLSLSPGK
light: B9 light with T33S, G52A, N53D, T74S, S95I, D96N
B11: DVD3904 DVD-Ig (PR-1565031) (bispecific antibody, human IgG1, kappa, L234A L235A)
heavy: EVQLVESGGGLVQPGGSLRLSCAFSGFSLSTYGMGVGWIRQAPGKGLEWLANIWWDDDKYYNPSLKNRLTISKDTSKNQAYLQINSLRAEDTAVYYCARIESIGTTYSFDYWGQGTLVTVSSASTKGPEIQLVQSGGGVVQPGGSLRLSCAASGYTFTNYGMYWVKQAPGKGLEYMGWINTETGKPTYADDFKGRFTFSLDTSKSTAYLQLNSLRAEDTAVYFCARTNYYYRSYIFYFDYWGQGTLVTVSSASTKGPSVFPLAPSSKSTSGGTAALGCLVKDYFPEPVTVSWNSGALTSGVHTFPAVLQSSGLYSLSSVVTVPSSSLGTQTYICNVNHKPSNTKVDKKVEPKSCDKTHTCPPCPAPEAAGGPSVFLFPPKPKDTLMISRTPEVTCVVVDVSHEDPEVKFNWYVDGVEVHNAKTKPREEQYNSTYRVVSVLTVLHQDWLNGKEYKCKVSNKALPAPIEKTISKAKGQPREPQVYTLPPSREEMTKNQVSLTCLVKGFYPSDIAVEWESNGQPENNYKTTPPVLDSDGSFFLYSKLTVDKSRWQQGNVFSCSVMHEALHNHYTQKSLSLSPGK
light: DFQLTQSPSSLSASVGDRVTITCERSSGDIGDSYVSWYQQKPGKAPKNVIYADDQRPSGVPSRFSGSGSGNSASLTISSLQPEDFATYFCQSYDINIDIVFGQGTKVEIKGTVAAPSVFIFPPDTVLTQSPSTLSASPGERATISCRASESVSTHMHWYQQKPGQAPKLLIYGASNLESGVPSRFSGSRSGTDFTLTISSLQPEDFAVYFCQQSWNDPFTFGQGTKVEIKRTVAAPSVFIFPPSDEQLKSGTASVVCLLNNFYPREAKVQWKVDNALQSGNSQESVTEQDSKDSTYSLSSTLTLSKADYEKHKVYACEVTHQGLSSPVTKSFNRGEC
B12: DVD3905 DVD-Ig (PR-1565032) (bispecific antibody, human IgG1, kappa, L234A L235A)
heavy: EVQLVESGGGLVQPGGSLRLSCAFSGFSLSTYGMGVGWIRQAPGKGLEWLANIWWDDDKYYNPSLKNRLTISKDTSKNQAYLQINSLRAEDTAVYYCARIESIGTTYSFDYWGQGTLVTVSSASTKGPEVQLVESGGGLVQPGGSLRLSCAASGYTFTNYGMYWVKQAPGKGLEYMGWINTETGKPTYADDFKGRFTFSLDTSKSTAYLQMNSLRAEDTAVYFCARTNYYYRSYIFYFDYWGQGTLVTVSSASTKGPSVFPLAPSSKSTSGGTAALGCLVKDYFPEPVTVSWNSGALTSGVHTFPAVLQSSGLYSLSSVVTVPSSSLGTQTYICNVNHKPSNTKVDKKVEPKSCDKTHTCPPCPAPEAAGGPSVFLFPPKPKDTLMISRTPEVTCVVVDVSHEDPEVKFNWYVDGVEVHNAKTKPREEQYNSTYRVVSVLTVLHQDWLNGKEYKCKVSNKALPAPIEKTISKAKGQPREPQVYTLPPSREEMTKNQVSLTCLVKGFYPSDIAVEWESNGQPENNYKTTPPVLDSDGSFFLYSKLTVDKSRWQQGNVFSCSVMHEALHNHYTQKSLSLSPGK
light: B7 light with T33S, G52A, N53D, T74S, S95I, D96N

Residue numbers refer to the chain shown, from its start. Bounds are passed on as bounds.

recombinant human PDGF-BB, sequence (P01127 82-190 limits assumed): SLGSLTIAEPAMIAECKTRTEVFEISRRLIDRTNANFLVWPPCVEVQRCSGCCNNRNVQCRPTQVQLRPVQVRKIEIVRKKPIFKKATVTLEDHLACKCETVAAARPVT

This test concerns the target recombinant human PDGF-BB (human, UniProt P01127 82-190). As to the kind of experiment: cell-based or functional assay.
Regarding B1, the “NIH-3T3 hPDGF-BB Potency IC50” value was greater than 5 nM. The figure for B2 is greater than 5 nM; for B3 it is greater than 5 nM; for B4 it is greater than 5 nM. The figure for B5 is greater than 5 nM. Turning to B6, the “NIH-3T3 hPDGF-BB Potency IC50” value was greater than 5 nM. On to B7, for which the “NIH-3T3 hPDGF-BB Potency IC50” value is greater than 5 nM. The figure for B8 is 0.059 nM; for B9 it is greater than 5 nM; for B10 it is greater than 5 nM.

As for B11, the “NIH-3T3 hPDGF-BB Potency IC50” value is greater than 5 nM.

Turning to B12, the “NIH-3T3 hPDGF-BB Potency IC50” value is greater than 5 nM.
